Source: paper PMC3049778

Target: GST-H486R optineurin (human) (UniProt Q96CV9)
Experiment: pull-down; GST-optineurin or GST-H486R on glutathione agarose beads incubated 6-8 hours with lysates of HeLa cells transfected with HA-CYLD; anti-HA immunoblot

Chain of UniProt Q96CV9 (Q96CV9 whole entry H486R): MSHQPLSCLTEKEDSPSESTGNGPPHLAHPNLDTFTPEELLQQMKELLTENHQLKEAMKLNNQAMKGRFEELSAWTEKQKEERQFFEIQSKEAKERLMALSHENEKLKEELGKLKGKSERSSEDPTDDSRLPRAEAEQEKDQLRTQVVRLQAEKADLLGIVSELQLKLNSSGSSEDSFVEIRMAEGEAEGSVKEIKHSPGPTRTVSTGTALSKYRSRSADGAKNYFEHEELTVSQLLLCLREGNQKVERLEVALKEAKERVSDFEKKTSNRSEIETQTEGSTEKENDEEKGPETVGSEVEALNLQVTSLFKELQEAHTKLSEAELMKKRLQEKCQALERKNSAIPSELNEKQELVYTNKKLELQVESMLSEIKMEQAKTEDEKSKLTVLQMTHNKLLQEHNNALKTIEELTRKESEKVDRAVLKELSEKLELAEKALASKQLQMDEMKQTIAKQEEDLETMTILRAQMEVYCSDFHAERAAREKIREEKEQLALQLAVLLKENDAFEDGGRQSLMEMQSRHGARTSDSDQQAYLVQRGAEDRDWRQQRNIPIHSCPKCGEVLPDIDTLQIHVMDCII

fold less binding than wild type optineurin: 5 fold
Substance: HA-tagged CYLD (CYLD cDNA obtained in the yeast two-hybrid screen, in pCDNA3.1-HA) (from UniProt Q9NQC7 403-956) (domain or fragment)
